Here are results for two molecules from publication PMC11166264 (Cell reports, 2021).

Like-named read-outs stand apart in the source and are kept apart here. No end group written: not given here. *: point of attachment. Biotin = O=C1N[C@H]2[C@H](CS[C@H]2CCCCC(=O)*)N1

Assay [1] has as its target T1, HA-dmRanGAP (Drosophila melanogaster, UniProt Q9VIW3 1-596).
T1 sequence (looked up): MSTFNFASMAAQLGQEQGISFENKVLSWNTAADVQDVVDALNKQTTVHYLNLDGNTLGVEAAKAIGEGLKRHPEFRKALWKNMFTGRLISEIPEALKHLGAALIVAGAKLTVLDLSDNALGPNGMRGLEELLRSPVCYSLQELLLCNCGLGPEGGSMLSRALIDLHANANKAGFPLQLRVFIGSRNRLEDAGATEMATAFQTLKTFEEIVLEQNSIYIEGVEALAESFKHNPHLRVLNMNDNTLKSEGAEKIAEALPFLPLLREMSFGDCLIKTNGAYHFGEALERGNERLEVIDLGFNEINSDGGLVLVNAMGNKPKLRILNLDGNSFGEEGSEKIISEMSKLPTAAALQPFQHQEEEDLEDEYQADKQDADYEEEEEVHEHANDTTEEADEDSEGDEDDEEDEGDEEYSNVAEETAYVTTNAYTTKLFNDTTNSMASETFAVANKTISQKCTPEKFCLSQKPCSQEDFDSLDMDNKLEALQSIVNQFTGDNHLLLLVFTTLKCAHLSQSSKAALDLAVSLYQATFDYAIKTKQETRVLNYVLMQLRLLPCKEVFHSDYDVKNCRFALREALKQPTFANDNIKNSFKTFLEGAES
Description: pull-down.

Assay [2] concerns the target T1, HA-dmRanGAP. Description: pull-down. This is another data set of the same source.

As to Biotin-VRPTTHEVIPPLPMTLPLLTLPQ [Biotinylated BP2 peptide (aa 2197-2219 of dmRanBP2)], the binding result with HA-dmRanGAP [1] was “binds”.

B1: dmRanBP2B-Frag (aa 2151-2250 of dmRanBP2B isoform) (domain or fragment, Drosophila melanogaster, UniProt A0A0B4K7J2 2151-2250, looked up)
chain: KPIEDSPVVGSVSQSTEANKPSQKNDGAAKSRGGESEVLDVGKTSSVRPTTHEVIPPLPMTLPLLTLPQPLAKPNDYQTPATILFKGSSLSRNNSSASEA
For the molecule B1, the binding result with HA-dmRanGAP [2] is on record as “binds”.
